Results on one molecule are retold here after PMC10441612.

This test concerns the target Noe1-His (Noelin 1 with C-terminal hexa-histidine tag), O88998. In words: AUC. Conditions: remark: other sources report otherwise.

As usually defined, the stoichiometry N is the number of molecules, sites or subunits per partner or assembly.

B1: Noe1-His (Noelin 1 with C-terminal hexa-histidine tag), O88998 17-485 (natural protein)
chain: MITNWMSQTLPSLVGLNTTRLSAASGGTLDRSTGVLPTNPEESWQVYSSAQDSEGRCICTVVAPQQTMCSRDARTKQLRQLLEKVQNMSQSIEVLDRRTQRDLQYVEKMENQMKGLETKFKQVEESHKQHLARQFKAIKAKMDELRPLIPVLEEYKADAKLVLQFKEEVQNLTSVLNELQEEIGAYDYDELQSRVSNLEERLRACMQKLACGKLTGISDPVTVKTSGSRFGSWMTDPLAPEGDNRVWYMDGYHNNRFVREYKSMVDFMNTDNFTSHRLPHPWSGTGQVVYNGSIYFNKFQSHIIIRFDLKTEAILKTRSLDYAGYNNMYHYAWGGHSDIDLMVDENGLWAVYATNQNAGNIVISKLDPVSLQILQTWNTSYPKRSAGEAFIICGTLYVTNGYSGGTKVHYAYQTNASTYEYIDIPFQNKYSHISMLDYNPKDRALYAWNNGHQTLYNVTLFHVIRSDEL
modifications: here or on the partner: glycosylated; glycosylated
Molecule B1 displayed a stoichiometry N of 4.
